Assay results taken from doi:10.1101/2025.07.17.665365, “A protein-dependent riboswitch activates ribosomal frameshifting in cardioviruses”.

Key:
[1] = biological target: T1, TMEV 2A (Theiler's murine encephalitis virus …, UniProt P08545 923-1055); test: EMSA; EMSA: 10 mM Tris-HCl pH 7.4, ~140 mM NaCl, 2 mM Mg acetate, 1 mM DTT, 5% glycerol, 50 nM RNA, 37 C; MST: 20 mM Tris-HCl pH 7.4, 400 mM NaCl, 1 mM MgCl2, 1 mM DTT, 0.05% Tween-20, 0.1 mg/ml tRNA, 22 C; smFRET: 10 mM Tris-HCl pH 7.4, 150 mM NaCl, 1 mM MgCl2, 1 mM DTT, 0.1 mg/ml BSA, ambient; conditions: protein: recombinant, tags: His6-MBP, TEV-cleaved/removed, label: 5' Cy5 or AzDye647
T1 sequence: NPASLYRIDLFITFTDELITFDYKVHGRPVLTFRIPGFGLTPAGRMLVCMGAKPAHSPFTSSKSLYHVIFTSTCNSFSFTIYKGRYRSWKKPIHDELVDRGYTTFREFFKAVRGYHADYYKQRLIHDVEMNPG

[2] = biological target: T1, TMEV 2A; test: EMSA; range given jointly for +1 and -1 bp; EMSA: 10 mM Tris-HCl pH 7.4, ~140 mM NaCl, 2 mM Mg acetate, 1 mM DTT, 5% glycerol, 50 nM RNA, 37 C; MST: 20 mM Tris-HCl pH 7.4, 400 mM NaCl, 1 mM MgCl2, 1 mM DTT, 0.05% Tween-20, 0.1 mg/ml tRNA, 22 C; smFRET: 10 mM Tris-HCl pH 7.4, 150 mM NaCl, 1 mM MgCl2, 1 mM DTT, 0.1 mg/ml BSA, ambient; conditions: protein: recombinant, tags: His6-MBP, TEV-cleaved/removed, label: 5' Cy5 or AzDye647
[3] = biological target: T1, TMEV 2A; test: X-ray crystallography; 1.9 A; pseudoknot; EMSA: 10 mM Tris-HCl pH 7.4, ~140 mM NaCl, 2 mM Mg acetate, 1 mM DTT, 5% glycerol, 50 nM RNA, 37 C; MST: 20 mM Tris-HCl pH 7.4, 400 mM NaCl, 1 mM MgCl2, 1 mM DTT, 0.05% Tween-20, 0.1 mg/ml tRNA, 22 C; smFRET: 10 mM Tris-HCl pH 7.4, 150 mM NaCl, 1 mM MgCl2, 1 mM DTT, 0.1 mg/ml BSA, ambient; conditions: protein: recombinant; tags: His6-MBP, TEV-cleaved/removed; stem-loop alone
[4] = biological target: T1, TMEV 2A; test: SEC-SAXS; SASDWS5; EMSA: 10 mM Tris-HCl pH 7.4, ~140 mM NaCl, 2 mM Mg acetate, 1 mM DTT, 5% glycerol, 50 nM RNA, 37 C; MST: 20 mM Tris-HCl pH 7.4, 400 mM NaCl, 1 mM MgCl2, 1 mM DTT, 0.05% Tween-20, 0.1 mg/ml tRNA, 22 C; smFRET: 10 mM Tris-HCl pH 7.4, 150 mM NaCl, 1 mM MgCl2, 1 mM DTT, 0.1 mg/ml BSA, ambient; conditions: protein: recombinant; tags: His6-MBP, TEV-cleaved/removed; 7 bp stem-loop with unpaired 5' tail alone; pseudoknot in complex
[5] = biological target: T1, TMEV 2A; test: smFRET; 0.5 uM 2A; E 0.85 to 0.63; EMSA: 10 mM Tris-HCl pH 7.4, ~140 mM NaCl, 2 mM Mg acetate, 1 mM DTT, 5% glycerol, 50 nM RNA, 37 C; MST: 20 mM Tris-HCl pH 7.4, 400 mM NaCl, 1 mM MgCl2, 1 mM DTT, 0.05% Tween-20, 0.1 mg/ml tRNA, 22 C; smFRET: 10 mM Tris-HCl pH 7.4, 150 mM NaCl, 1 mM MgCl2, 1 mM DTT, 0.1 mg/ml BSA, ambient; conditions: protein: recombinant; tags: His6-MBP, TEV-cleaved/removed; label: 5' Cy5; 3' Cy3; stem-loop / pseudoknot
[6] = biological target: T1, TMEV 2A; test: smFRET; 0.5 uM 2A; E 0.58 to 0.83; EMSA: 10 mM Tris-HCl pH 7.4, ~140 mM NaCl, 2 mM Mg acetate, 1 mM DTT, 5% glycerol, 50 nM RNA, 37 C; MST: 20 mM Tris-HCl pH 7.4, 400 mM NaCl, 1 mM MgCl2, 1 mM DTT, 0.05% Tween-20, 0.1 mg/ml tRNA, 22 C; smFRET: 10 mM Tris-HCl pH 7.4, 150 mM NaCl, 1 mM MgCl2, 1 mM DTT, 0.1 mg/ml BSA, ambient; conditions: protein: recombinant; tags: His6-MBP, TEV-cleaved/removed; label: 5' Cy5; U31 Cy3; stem-loop / pseudoknot

B1: Stem 2 swap (structured_RNA)
RNA: CAAGGUGCCCACGAUACUAAAUCCCAUCGUGGCC
Kd ([1]; stem-loop / pseudoknot): ~313 nM

B2: +1 bp stem 2 (structured_RNA)
RNA: CAAGGUGGGGUGCUUACUAAAUCCCAAGCACCCC
Kd ([2]; 8 bp S2): ~442 nM

B3: Stem 1 swap (structured_RNA)
RNA: CAACCUCCGGUGCUAACUAAAUGGGUAGCACCCC
binding result ([1]; stem-loop / pseudoknot): no binding

B4: AU stem 1 (structured_RNA)
RNA: CAAAAUACGGUGCUAACUAAAUUUUUAGCACCCC
binding result ([1]; stem-loop / pseudoknot): no binding

B5: UA stem 1 (structured_RNA)
RNA: CAAUUUUCGGUGCUAACUAAAUAAAUAGCACCCC
binding result ([1]; stem-loop / pseudoknot): no binding

B6: dU19 stem 1 (structured_RNA)
RNA: CAAGGGCGGUGCUAACUAAAUCCCUAGCACCCC
binding result ([1]; stem-loop / pseudoknot): no binding

B7: -1 bp stem 2 (structured_RNA)
RNA: CAAGGUGCGGUGCUACUAAAUCCCAGCACCCC
Kd ([2]; 6 bp S2): ~442 nM

B8: -2 bp stem 2 (structured_RNA)
RNA: CAAGGUGCGGUGCACUAAAUCCCGCACCCC
binding result ([1]; 5 bp S2): no binding

B9: C37G (structured_RNA)
RNA: CAAGGUGCGGUGCUAACUAAAUCGCUAGCACCCC
binding result ([1]; stem-loop): no binding

B10: TMEV minimal stimulatory element (oligo 1) (structured_RNA)
RNA: CAAGGUGCGGUGCUAACUAAAUCCCUAGCACCCC
binding result [3]: binds

B11: C36G (structured_RNA)
RNA: CAAGGUGCGGUGCUAACUAAAUGCCUAGCACCCC
binding result ([1]; stem-loop): no binding

B12: TMEV stimulatory element, SAXS RNA (structured_RNA)
RNA: CCACAAGGUGCGGUGCUAACUAAAUCCCUAGCACCCC
binding result [4]: binds

B13: TMEV end reporter RNA (structured_RNA)
RNA: CAAGGUGCGGUGCUAACUAAAUCCCUAGCACCCC
binding result [5]: binds

B14: TMEV internal reporter RNA (structured_RNA)
RNA: CAAGGUGCGGUGCUAACUAAAUCCCUAGCACCCC
modifications: U31 Cy3 (internal)
binding result [6]: binds
